Assay results taken from patent US20200385710.

Experiments:
[1] = test system: Bxb1 integrase (Mycobacteriophage Bxb1?); test: cell_activity; conditions: 0.85% without integrase
[2] = test system: T1, Bxb1 integrase, codon-optimized with bipartite Xenopus NLS (Mycobacteriophage Bxb1?); test: cell_activity; conditions: 1 mM VPA as printed, 27.6% without VPA
T1 sequence: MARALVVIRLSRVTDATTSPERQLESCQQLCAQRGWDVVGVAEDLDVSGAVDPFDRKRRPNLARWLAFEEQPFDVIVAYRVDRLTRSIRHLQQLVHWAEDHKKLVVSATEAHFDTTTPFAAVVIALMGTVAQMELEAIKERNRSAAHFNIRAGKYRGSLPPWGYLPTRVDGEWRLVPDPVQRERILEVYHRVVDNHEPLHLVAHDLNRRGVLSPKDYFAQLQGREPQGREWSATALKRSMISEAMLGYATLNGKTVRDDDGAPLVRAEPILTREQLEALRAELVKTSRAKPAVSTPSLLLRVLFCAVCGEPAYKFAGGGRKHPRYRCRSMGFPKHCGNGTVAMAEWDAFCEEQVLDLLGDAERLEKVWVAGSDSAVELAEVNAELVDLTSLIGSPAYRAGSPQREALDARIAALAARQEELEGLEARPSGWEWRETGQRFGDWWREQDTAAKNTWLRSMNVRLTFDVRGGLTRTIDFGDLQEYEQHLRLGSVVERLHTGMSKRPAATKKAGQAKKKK

| Substance | activity (% GFP-positive cells) ([1]; attB donor partner of attP at H11 in HEK293) | activity (% integration) ([2]; attB donor partner, HEK293 H11) | activity (% GFP-positive cells) ([1]; attP x attB integration at H11 in HEK293, AAVS1 locus 15.4% (0.74% without)) | activity (% integration) ([2]; HEK293 H11 attP, 43.5% at 700 nM VPA) |
| --- | --- | --- | --- | --- |
| Bxb1 attB (donor plasmid with GFP) | 19.4 | 45.2 | – | – |
| Bxb1 attP (landing pad at H11 or AAVS1 locus) | – | – | 19.4 | 45.2 |
